# According to patent US20240272170A1 (QUANTUM SI, published 2024):
# T1: QP1165 after cleavage to N-terminal isoleucine (IAFLKQRVWK)
# T1 peptide: IAFLKQRVWK
# T2: QP1165 after cleavage to N-terminal leucine (LKQRVWK)
# T2 peptide: LKQRVWK
# Legend:
# [1] = target: T1, QP1165 after cleavage to N-terminal …; assay: on-chip dynamic sequencing of QP1165, PS1875 run, trace Aperture=295010
# [2] = target: T2, QP1165 after cleavage to N-terminal …; assay: as above
# [3] = target: T1, QP1165 after cleavage to N-terminal …; assay: on-chip dynamic sequencing of QP1165, PS2132 run, trace Aperture=376215
# [4] = target: T2, QP1165 after cleavage to N-terminal …; assay: on-chip dynamic sequencing of QP1165, PS1875 run, trace Aperture=430641
# [5] = target: T1, QP1165 after cleavage to N-terminal …; assay: on-chip dynamic sequencing of QP1165, PS2121 run, trace Aperture=740473
# [6] = target: T2, QP1165 after cleavage to N-terminal …; assay: as above
# [7] = target: T1, QP1165 after cleavage to N-terminal …; assay: on-chip dynamic sequencing of QP1165, PS2123 run, trace Aperture=501326
# [8] = target: T2, QP1165 after cleavage to N-terminal …; assay: as above
# [9] = target: T1, QP1165 after cleavage to N-terminal …; assay: on-chip dynamic sequencing of QP1165, PS2121 run, trace Aperture=1683362
# [10] = target: T2, QP1165 after cleavage to N-terminal …; assay: as above
# [11] = target: T2, QP1165 after cleavage to N-terminal …; assay: on-chip dynamic sequencing of QP1165, PS1875 run, trace Aperture=1377116
# Description: The semiconductor chip was placed in the sequencing device and a chip check was performed to test electronic circuit function and to optimize laser coupling alignment. The chip was then removed from the device socket and the chip was washed twice with 50 μL of 70% isopropanol, followed by four washes with 30 μL of wash buffer (50 mM MOPS pH 8.0, 60 mM potassium acetate, 50 mM glucose, 20 mM magnesium acetate, and surfactant mix) through a flow cell attached to the chip. A second chip check was then performed. The laser was then blocked via an integrated software-controlled shutter, peptide complex was added to a final concentration of 1-10 nM and mixed thoroughly, and the chip was incubated for 15 min. The chip was then washed six times with wash buffer, followed by addition of an imaging solution (wash buffer with 5 mM Trolox and an oxygen scavenging system). The laser was unblocked and the occupancy percentage (target 10-30%, Poisson distributed) was recorded by acquiring a photobleaching signal from a fluorophore attached to the peptide complex during 5 min of laser illumination. […] Data was recorded for 15 min. The laser was then blocked briefly and aminopeptidases were added to the sequencing reaction via the flow cell and mixed thoroughly (final concentration 2-8 μM PhTET2 and/or 20-80 μM PhTET3, as indicated according to the experiment). The laser was then unblocked, and data was recorded for 10 hours. For all runs, 30 μL of mineral oil was added to fluid reservoirs at each port of the flow cell to prevent evaporation during the run.
# [12] = target: T1, QP1165 after cleavage to N-terminal …; assay: on-chip dynamic sequencing of QP1165, 500 nM PS1875 plus five recognizers, 7305 alignments
# [13] = target: T2, QP1165 after cleavage to N-terminal …; assay: as above
# [14] = target: T1, QP1165 after cleavage to N-terminal …; assay: on-chip dynamic sequencing of QP1165, 500 nM PS1875 plus five recognizers, 3369 alignments
# [15] = target: T2, QP1165 after cleavage to N-terminal …; assay: as above
# [16] = target: T1, QP1165 after cleavage to N-terminal …; assay: on-chip dynamic sequencing of QP1165, 500 nM PS2132 plus five recognizers, 36192 alignments
# [17] = target: T2, QP1165 after cleavage to N-terminal …; assay: as above
# [18] = target: T1, QP1165 after cleavage to N-terminal …; assay: on-chip dynamic sequencing of QP1165, 500 nM PS2121 plus five recognizers, 15527 alignments
# [19] = target: T2, QP1165 after cleavage to N-terminal …; assay: as above
# [20] = target: T1, QP1165 after cleavage to N-terminal …; assay: on-chip dynamic sequencing of QP1165, 500 nM PS2123 plus five recognizers, 62511 alignments
# [21] = target: T2, QP1165 after cleavage to N-terminal …; assay: as above
binder,measurement,setting,value
"PS1223 (designed binder, dye-labelled recognizer for N-terminal L, I, V in the six-recognizer runs; also called PS1223 (LIV)) single polypeptide, two PS961 units in tandem: MPTAASATESAIEDTPAPARPEVDGRTKPKRQPRYHVVLWDDDDHTYQYVVVMLRSLFGHPPSRGYRMAKEMDTQGRVIVLTTTREHAELKRDQIHAFGRDRLLARSKGSMKASIEAEEGSAGSAAGSGEFGSAGSAAGSGEFGSAGSAAGSGEFMPTAASATESAIEDTPAPARPEVDGRTKPKRQPRYHVVLWDDDDHTYQYVVVMLRSLFGHPPSRGYRMAKEMDTQGRVIVLTTTREHAELKRDQIHAFGRDRLLARSKGSMKASIEAEE",PD of a recognition segment in an example trace,[1],0.48 s
same,PD of a recognition segment in an example trace,[2],3.19 s
same,PD of a recognition segment in an example trace,[3],0.49 s
same,PD of a recognition segment in an example trace,[4],0.64 s
same,PD of a recognition segment in an example trace,[5],0.5 s
same,PD of a recognition segment in an example trace,[6],0.49 s
same,PD of a recognition segment in an example trace,[7],0.51 s
same,PD of a recognition segment in an example trace,[8],0.39 s
same,PD of a recognition segment in an example trace,[9],0.52 s
same,PD of a recognition segment in an example trace,[10],0.28 s
same,PD of a recognition segment in an example trace,[11],0.68 s
same,IPD (interpulse duration),[12],8.02 s
same,PD (pulse duration),[12],1.15 s
same,IPD (interpulse duration),[13],15.4 s
same,PD (pulse duration),[13],0.65 s
same,IPD (interpulse duration),[14],7.33 s
same,PD (pulse duration),[14],1.18 s
same,IPD (interpulse duration),[15],15.3 s
same,PD (pulse duration),[15],0.66 s
same,IPD (interpulse duration),[16],9.74 s
same,PD (pulse duration),[16],0.66 s
same,IPD (interpulse duration),[17],17.4 s
same,PD (pulse duration),[17],0.54 s
same,IPD (interpulse duration),[18],8.64 s
same,PD (pulse duration),[18],0.7 s
same,IPD (interpulse duration),[19],16.6 s
same,PD (pulse duration),[19],0.63 s
same,IPD (interpulse duration),[20],9.24 s
same,PD (pulse duration),[20],0.73 s
same,IPD (interpulse duration),[21],17.3 s
same,PD (pulse duration),[21],0.54 s
